# Assay results reported in patent US20150344570A1 (published 2015).
# T1: FcγRIIb extracellular domain with C-terminal His tag (human, UniProt P31994 43-217)
# T1 construct: extracellular domain; also called FcgRIIb; 2b; not shown: His tag at the C terminus
# T1 sequence (looked up): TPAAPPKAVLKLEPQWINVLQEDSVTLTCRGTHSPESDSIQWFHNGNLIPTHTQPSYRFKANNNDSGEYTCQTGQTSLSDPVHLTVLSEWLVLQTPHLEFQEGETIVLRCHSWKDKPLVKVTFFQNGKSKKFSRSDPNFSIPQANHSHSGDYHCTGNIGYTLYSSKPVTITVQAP
# B1: GpH7-A5/GpH7-B3 variant K334_10E/GpL16-k0 (antibody, human IgG1, kappa)
# heavy 1: not shown
# heavy 2: not shown
# light: DIVMTQSPLSLPVTPGEPASISCQASESLVHSNRNTYLHWYLQKPGQSPQLLIYKVSNRFSGVPDRFSGSGSGTDFTLKISRVEAEDVGVYYCSQNTHVPPTFGQGTKVEIERTVAAPSVFIFPPSDEQLKSGTASVVCLLNNFYPREAKVQWKVDNALQSGNSQESVTEQDSKDSTYSLSSTLTLSKADYEKHKVYACEVTHQGLSSPVTKSFNRGEC
# notes: also called He Ab K334_10E
# B2: GpH7-A5/GpH7-B3 variant I332_09D/GpL16-k0 (antibody, human IgG1, kappa)
# heavy 1: not shown
# heavy 2: not shown
# light: B1 light
# notes: also called He Ab I332_09D
# B3: GpH7-A5/GpH7-B3 variant I336_08L/GpL16-k0 (antibody, human IgG1, kappa)
# heavy 1: not shown
# heavy 2: not shown
# light: B1 light
# notes: also called He Ab I336_08L
# B4: GpH7-A5/GpH7-B3 variant K334_13S/GpL16-k0 (antibody, human IgG1, kappa)
# heavy 1: not shown
# heavy 2: not shown
# light: B1 light
# notes: also called He Ab K334_13S
# B5: GpH7-A5/GpH7-B3 variant K334_07I/GpL16-k0 (antibody, human IgG1, kappa)
# heavy 1: not shown
# heavy 2: not shown
# light: B1 light
# notes: also called He Ab K334_07I
# B6: GpH7-A5/GpH7-B3 variant P238_04F/GpL16-k0 (antibody, human IgG1, kappa)
# heavy 1: not shown
# heavy 2: not shown
# light: B1 light
# notes: also called He Ab P238_04F
# B7: GpH7-A5/GpH7-B3 variant K326_14T/GpL16-k0 (antibody, human IgG1, kappa)
# heavy 1: not shown
# heavy 2: not shown
# light: B1 light
# notes: also called He Ab K326_14T
# B8: GpH7-A5/GpH7-B3 variant K334_04F/GpL16-k0 (antibody, human IgG1, kappa)
# heavy 1: not shown
# heavy 2: not shown
# light: B1 light
# notes: also called He Ab K334_04F
# B9: GpH7-A5/GpH7-B3 variant K326_10E/GpL16-k0 (antibody, human IgG1, kappa)
# heavy 1: not shown
# heavy 2: not shown
# light: B1 light
# notes: also called He Ab K326_10E
# B10: GpH7-A5/GpH7-B3 variant K326_20W/GpL16-k0 (antibody, human IgG1, kappa)
# heavy 1: not shown
# heavy 2: not shown
# light: B1 light
# notes: also called He Ab K326_20W
# B11: GpH7-A5/GpH7-B3 variant K326_15Y/GpL16-k0 (antibody, human IgG1, kappa)
# heavy 1: not shown
# heavy 2: not shown
# light: B1 light
# notes: also called He Ab K326_15Y
# B12: GpH7-A5/GpH7-B3 variant T335_15Y/GpL16-k0 (antibody, human IgG1, kappa)
# heavy 1: not shown
# heavy 2: not shown
# light: B1 light
# notes: also called He Ab T335_15Y
# B13: GpH7-A5/GpH7-B3 variant H268_13S/GpL16-k0 (antibody, human IgG1, kappa)
# heavy 1: not shown
# heavy 2: not shown
# light: B1 light
# notes: also called He Ab H268_13S
# B14: GpH7-A5/GpH7-B3 variant I332_14T/GpL16-k0 (antibody, human IgG1, kappa)
# heavy 1: not shown
# heavy 2: not shown
# light: B1 light
# notes: also called He Ab I332_14T
# B15: GpH7-A5/GpH7-B3 variant I332_15Y/GpL16-k0 (antibody, human IgG1, kappa)
# heavy 1: not shown
# heavy 2: not shown
# light: B1 light
# notes: also called He Ab I332_15Y
# B16: GpH7-A5/GpH7-B3 variant S239_03V/GpL16-k0 (antibody, human IgG1, kappa)
# heavy 1: not shown
# heavy 2: not shown
# light: B1 light
# notes: also called He Ab S239_03V
# B17: GpH7-A5/GpH7-B3 variant K334_08L/GpL16-k0 (antibody, human IgG1, kappa)
# heavy 1: not shown
# heavy 2: not shown
# light: B1 light
# notes: also called He Ab K334_08L
# B18: GpH7-A5/GpH7-B3 variant S324_06M/GpL16-k0 (antibody, human IgG1, kappa)
# heavy 1: not shown
# heavy 2: not shown
# light: B1 light
# notes: also called He Ab S324_06M
# B19: GpH7-A5/GpH7-B3 variant P238_15Y/GpL16-k0 (antibody, human IgG1, kappa)
# heavy 1: not shown
# heavy 2: not shown
# light: B1 light
# notes: also called He Ab P238_15Y
# B20: GpH7-A5/GpH7-B3 variant K326_09D/GpL16-k0 (antibody, human IgG1, kappa)
# heavy 1: not shown
# heavy 2: not shown
# light: B1 light
# notes: also called He Ab K326_09D
# B21: GpH7-A5/GpH7-B3 variant G237_04F/GpL16-k0 (antibody, human IgG1, kappa)
# heavy 1: not shown
# heavy 2: not shown
# light: B1 light
# notes: also called He Ab G237_04F
# B22: GpH7-A5/GpH7-B3 variant P331_15Y/GpL16-k0 (antibody, human IgG1, kappa)
# heavy 1: not shown
# heavy 2: not shown
# light: B1 light
# notes: also called He Ab P331_15Y
# B23: GpH7-A5/GpH7-B3 variant T335_10E/GpL16-k0 (antibody, human IgG1, kappa)
# heavy 1: not shown
# heavy 2: not shown
# light: B1 light
# notes: also called He Ab T335_10E
# B24: GpH7-A5/GpH7-B3 variant P331_16H/GpL16-k0 (antibody, human IgG1, kappa)
# heavy 1: not shown
# heavy 2: not shown
# light: B1 light
# notes: also called He Ab P331_16H
# B25: GpH7-A5/GpH7-B3 variant V266_06M/GpL16-k0 (antibody, human IgG1, kappa)
# heavy 1: not shown
# heavy 2: not shown
# light: B1 light
# notes: also called He Ab V266_06M
# B26: GpH7-A5/GpH7-B3 variant K334_02A/GpL16-k0 (antibody, human IgG1, kappa)
# heavy 1: not shown
# heavy 2: not shown
# light: B1 light
# notes: also called He Ab K334_02A
# B27: GpH7-A5/GpH7-B3 variant K326_19Q/GpL16-k0 (antibody, human IgG1, kappa)
# heavy 1: not shown
# heavy 2: not shown
# light: B1 light
# notes: also called He Ab K326_19Q
# B28: GpH7-A5/GpH7-B3 variant Y296_20W/GpL16-k0 (antibody, human IgG1, kappa)
# heavy 1: not shown
# heavy 2: not shown
# light: B1 light
# notes: also called He Ab Y296_20W
# Molecular target: T1, FcγRIIb extracellular domain with …
# Assay: SPR, relative binding, HeCon Ab = 100
# Method: Analysis of interaction between objective antibody and the FcγR was carried out using Biacore T100 (GE Healthcare). HBS-EP+ (GE Healthcare) was used as the running buffer, and the measurement temperature was set to 25° C. Chips produced by immobilizing the antigen peptide by the amine coupling method to a Series S Sencor Chip CM5 (GE Healthcare), or alternatively, chips produced by allowing preliminarily biotinylated antigen peptides to interact with and immobilize onto a Series S Sensor Chip SA (certified) (GE Healthcare) were used. Antibodies of interest were captured onto an antigen peptide-immobilized chip, and allowed to interact to each FcγR diluted with running buffer. To regenerate and repeatedly use the chip, the antibodies captured on the chip were washed off by reacting 10 mM glycine-HCl, pH 1.5.
row,He/Con_2b,Binder
1,114 % of control,B1
2,147 % of control,B2
3,107 % of control,B3
4,111 % of control,B4
5,119 % of control,B5
6,312 % of control,B6
7,150 % of control,B7
8,111 % of control,B8
9,200 % of control,B9
10,148 % of control,B10
11,159 % of control,B11
12,108 % of control,B12
13,160 % of control,B13
14,106 % of control,B14
15,101 % of control,B15
16,108 % of control,B16
17,106 % of control,B17
18,112 % of control,B18
19,218 % of control,B19
20,193 % of control,B20
21,149 % of control,B21
22,114 % of control,B22
23,108 % of control,B23
24,116 % of control,B24
25,251 % of control,B25
26,108 % of control,B26
27,139 % of control,B27
28,103 % of control,B28
